Test results taken from patent US20260092121A1 (TALEM THERAPEUTICS, published 2026).
Positions count from the first letter of the chain named.

B1: anti-CD3 Fab clone 8-B12 (Fab, V domains shown)
VH: HVQLVQSGGGSAQHGGSLRLSCAASGFTFNNSYMNWVRQAPGKRLEWISTISRGGNSVYYADSVKGRFTVSRDNTKNLTFLQMDSLRDEDTAVYYCAKGGDYLYWGQGTLVTVSS
VL: NFMLTQPHSVSESPGKTVTLSCTRSSGSIASKYVQWYQQRPGSAPTIVIFDDDRRPSGVPDRFSGSIDRSSNSASLTIFGMKTEDEADYYCQSYDSSNWVFGGGTKLTVL
notes: Fab, HEK293
B2: anti-CD3 Fab clone 3-A06 (Fab, V domains shown)
VH: QVTLRESGGGLVKPGGSLRLSCSASGFTFRGFYMAWIRQAPGKGLEWVAYISSSGSAVYHADSVKGRFTVSRDNAKNLMYLEMNSLRADDTAVYYCARDGGTGGFDYWGQGTLVTVSS
VL: NFMLTQPHSVSESPGKTVAISCSRSSGSVASNYVQWYQQRPGNVPTTIIYQDNQRPSGVPDRFSGSIDKSSNSASLTISGLKTEDEADYYCQSYDGRRLIFGGGTKLTVL
notes: Fab, HEK293; not the anti-TrkB clone 3A06
B3: anti-CD3 Fab clone 7-A11 (Fab, V domains shown)
VH: EVQLVESGGGVVQPGRSLRLSCAASGFTFSSYGIHWVRQAPGKGLEWVSAISGSGGSTYYADSVKGRFTISRDNAKNSLYLQMNSLRDEDTAVYYCARERLIGMDVWGQGTTVTVSS
VL: NFMLTQPHSVAESPGKTVTISCTRSSGSIASNYVQWYQQRPGSAPTTVIYEDNQRPSGVPDRFSGSIDSSSNSASLTISGLKTEDEADYYCQSYDSGNPRVFGGGTKLTVL
notes: Fab, HEK293
B4: anti-CD3 Fab clone 7-C11 (Fab, V domains shown)
VH: EVQLVESGGGLVQPGGSLRLSCAASGFTSNTYAMSWVRQAPGKGLEWVSTISGSGSSTNYADSVKGRFTISRDSSKNTLYLQMNSLRAEDTAVYYCARIERYSYGIDYWGQGTLVTVSS
VL: NFMLTQPHSVSESPGKTVTISCTRNTGGIAANYVQWYHQRPGSAPTTVIYEDKQRPSGVPGRFSGSIDGSSNSASLTISGLQAEDEGDYYCHSSDNNNQVFGGGTKLTVL
notes: Fab, HEK293
B5: anti-CD3 Fab clone 3-B06 (Fab, V domains shown)
VH: QVQLQQSGAEVKKPGASLKVSCKASGYTFTRYGFSWVRQAPGQGLEWMGWISAYNGNTNYAQKFQGRVTMTTDTSTSTAYMEMRSLRSDDTAVYYCARDRGYCSGGSCPGIDAFDIWGQGTMVTVSS
VL: SYVLTQPPSVSVAPGQTAKITCGGDNIENKYVHWYQQKPGQAPVVVVYDDSDRPSGIPDRFSGSNSGNTATLTITRVEAGDEADYYCQVWDSSSDRVVFGGGTKLTVL
notes: Fab, HEK293; not the anti-TrkB clone 3B06
B6: anti-CD3 Fab clone 4-G04 (Fab, V domains shown)
VH: QVNLRESGGGVVQPGGSLRLSCAASGFTFRRYGMNWIRQAPGKGLEWVSSISSSSSYIYYADSVKGRFTISRDNAKNSLYLQMNSLRAEDTAMYYCVRDGRFINGLDVWGQGTLVTVSS
VL: NFMLTQPHSVSESPGRTVTISCTRSSGSIASNYVQWYQQRPGSSPTTVIYDDKKRPSGVPDRFSGSIDSSTNSASLTISGLKTEDEADYYCQSYDSSNHWVFGGGTKVTVL
notes: Fab, HEK293
B7: anti-CD3 Fab clone 1-G11 (Fab, V domains shown)
VH: QVQLVQSGAEVKKPGASVKVSCKASGYTFTSYGISWVRQAPGQGLEWMGWISAYNGNTNYAQKLQGRVTMTTDTPTSTAYMEVRSLRSDDTAVYYCAREVNYGLDVWGQGTLVTVSS
VL: QPVLTQPPSASGTPGQRVTISCSGSSSNIGSKYVYWYQQLPGTAPKLLIYRNNQRPSGVPDRFSGSKSGTSASLVISGLRSEDEADYHCAAWDDSLSGRVFGGGTKLTVL
notes: Fab, HEK293
B8: anti-CD3 Fab clone 3-A05 (Fab, V domains shown)
VH: QVQLLQSAAEVKKPGASVKVPCKASGYTFTGHYMHWVRQAPGQGLEWMGIINPRGGSTSYAQKFQGRVTMTRDTSTSTVYMELSSLRSEDTAVYYCARESIAAAGPYFDYWGQGTLVTVSS
VL: QSALTQPHSVSESPGKTVTISCTRTSGRIGSNYVQWYQQRPGSAPTVVIYEDNQRPSGVPDRFSGSIDSSTNSASLTISRLKTEDEADYYCQSYDSGVVVVFGGGTKLTV
notes: Fab, HEK293; not the anti-TrkB clone 3A05
B9: anti-CD3 Fab clone 7-B02 (Fab, V domains shown)
VH: QVQLVQSGGGLVQPGGSLRLSCAASGFTFSRYSMSWVRQAPGKGLEWVSSISGGGGSTYYADSVKGRFTISRDNSDGSVYLKMNSLAAGDTAAYYCVRGGWYRTPFEFWGRGTLVTVSS
VL: SYVLTQPPSVSASPGQTASITCSGHKLGDKYTSWYQQKPGQSPVLVIYQDNKRPSGIPERFSGSNSGNTATLTISGTQAMDEADYYCQAWDSSTNYVFGTGTKLTVL
notes: Fab, HEK293
B10: anti-CD3 Fab clone 1-C12 (Fab, V domains shown)
VH: QVQLQQSGPGLVKPSQTLSLTCAISGDSVSSNSAAWNWIRQSPSRGLEWLGRTYYRSKWYNDYAVSVKSRITINPDTSKNQFSLQLNSVTPEDTAVYYCARGITGTGYGMDVWGQGTLVTVSS
VL: QSVLTQPPSASGTPGQRVTISCSGSSSNIGRNHVYWYQQLPGTAPKLLIYNNDQRPSGVPDRFSGSKSGTSGSLTISGLQAEDEADYYCAAWDDSLSSGVFGGGTKVTVL
notes: Fab, HEK293
B11: anti-CD3 Fab clone 5-A05 (Fab, V domains shown)
VH: QVQLVQSGAEGKKPGSSVKVSCKASGGTFSSYAISWVRQAPGQGLEWMGGIIPIFGTANYAQKFQGRVTITADESTSTAYMELRSLRSDDTAVYYCARDAVVVADSGSMDVWGQGTTVTVSS
VL: not shown
notes: Fab, HEK293
B12: anti-CD3 Fab clone 1-H01 (Fab, V domains shown)
VH: B11 VH with G11V, R84S, D89E
VL: not shown
notes: Fab, HEK293
B13: anti-CD3 Fab clone 3-C04 (Fab, V domains shown)
VH: EVQLVESGGGLVQPGGSLRLSCAASGFTFNNFYMNWVRQAPGKGLEWISTISRGGNSVYYADSVKGRFTVSRDNAKNSLFLQMDSLRDEDTAVYYCVRGGDFLYWGQGTLVTVSS
VL: NFMLTQPHSVSESPGKTVTISCTRSTGSIAGNYVQWYQQRPGSSPTTVILEDKQRPSGVPDRFSGSIDTSSNSATLTISGLKTEDEADYYCQSYDSGNVIFGGGTKLTVL
notes: Fab, HEK293
B14: anti-CD3 Fab clone 7-G01 (Fab, V domains shown)
VH: QVQLVQSGPEVKKPGASVNISCKTSGYTFRNYYVHWVRQAPGQGFEYMGRVNPNSGNARYAQKFQGRVAMTSDTSTSTAYMELSSLRSEDTAVYYCAREPPATVAYYYGMDVWGQGTTVTVSS
VL: NFMLTQPHSVSESPGKTVTISCTGSSGSIASNYVHWYQQRPGSAPTTVIYEDNQRPSGVPDRFSGSIDSSSNSASLTISGLKTEDEADYYCRSYDSSNRNWVFGGGTKLTVL
notes: Fab, HEK293
B15: anti-CD3 Fab clone 4-A01 (Fab, V domains shown)
VH: QVQLVQSEGGLVQPGGSLRLSCAASGFSFGSSAMSWVRQAPGRGLEWVSGISHSGSTTYYADSVKGRFTISRDNSKNTLYLQMNSLRVEDTAVYYCAKIGAYGYYFHYWGQGTLVTVSS
VL: NFMLTQPHSVSESPGKTVTISCTGSGGNIGNNYVQWYQQRPDSPPSTVIYDDSQRPSGVPDRFSGSIDRSSNSASLTISGLRTEDEADYYCQSSDSGRVVFGGGTKLTV
notes: Fab, HEK293
B16: anti-CD3 Fab clone 4-G03 (Fab, V domains shown)
VH: B15 VH with V5L, E8A, F27Y, V88A
VL: NFMLTQPHSVSESPGKTVTISCTGNGGNIASNYVQWYQHRPDSAPIAVIYDDSQRPSGIPDRFSGSIDRSSNSASLTISGLRPEDEADYYCQSSDNANVVFGGGTKLTVL
notes: Fab, HEK293
B17: anti-CD3 Fab clone 7-E01 (Fab, V domains shown)
VH: B15 VH with V5Q, E8G
VL: B3 VL with A11S, K16R, P56L, S69R, Y94S, S96D, G97S, P99H, R100L
notes: Fab, HEK293
B18: anti-CD3 Fab clone 5-C03 (Fab, V domains shown)
VH: QVQLQQSGPGLVKPSQTLSLTCAISGDSVSSNSAAWNWIRQSPSRGLEWLGRTYYRSKWYNDYAVSVKSRITINPDTSKNQFSLQLNSVTPEDTAVYYCATWGMDVWGQGTTVTVSS
VL: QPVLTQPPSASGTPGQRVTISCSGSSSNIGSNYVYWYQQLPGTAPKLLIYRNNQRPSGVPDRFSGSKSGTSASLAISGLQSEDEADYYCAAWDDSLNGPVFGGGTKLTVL
notes: Fab, HEK293
B19: anti-CD3 Fab clone 2-C02 (Fab, V domains shown)
VH: B18 VH with Q85H
VL: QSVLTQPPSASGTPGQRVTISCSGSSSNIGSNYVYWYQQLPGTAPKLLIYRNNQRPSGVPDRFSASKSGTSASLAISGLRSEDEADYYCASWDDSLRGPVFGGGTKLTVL
notes: Fab, HEK293
B20: anti-CD3 Fab clone 6-C04 (Fab, V domains shown)
VH: B18 VH with Q85H, T112M
VL: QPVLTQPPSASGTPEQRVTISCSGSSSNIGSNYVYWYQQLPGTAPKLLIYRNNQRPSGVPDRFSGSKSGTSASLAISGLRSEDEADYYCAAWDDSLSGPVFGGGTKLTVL
notes: Fab, HEK293
B21: anti-CD3 Fab clone 3-A03 (Fab, V domains shown)
VH: EVQLVESGGGVVQPGRSLRLSCAASGFTFSSYAMHWVRQAPGKGLEWVSAISGSGGSTYYADSVKGRFTISRDNSKNTLYLQMNSLRAEDTAVYYCARDAHDYWGQGTLVTVSS
VL: QSVLTQPPSVSAAPGQKATISCSGGSSNLGNNYVSWYQQLPGTAPKLLIYDNNKRPSGIPDRFSGSKSGTSAALAITGLQTGDEADYYCGTWDSSLSAGVFGGGTKLTVL
notes: Fab, HEK293
B22: anti-CD3 Fab clone 3-B04 (Fab, V domains shown)
VH: QVQLVQSGGGLVQPGRSLRLSCAASGFTFDDFAMHWVRQAPGKGLEWVSGITWNSAATIYADSVKGRFTISRDNAKNSLYLQMNSLRPEDTAVYYCARDRGGPKDPFDIWGQGTMVTVSS
VL: B21 VL with Q16K, A18V, L29I, N31K, A73T, A75G, G99V
notes: Fab, HEK293; not the anti-TrkB clone 3B04
B23: anti-CD3 Fab clone 1-D03 (Fab, V domains shown)
VH: EVQLVQSGGGLVKPGRSLRLSCTASGFTFGDYAMSWFRQAPGKGLEWVGFIRSKAYGGTTEYAASVKGRFTISRDDSKSIAYLQMNSLKTEDTAVYYCTRVSDIYGMDVWGQGTTVTVSS
VL: B21 VL with A18V, G25S, L29I, A73T, A75G, G90A, S94D, S97K
notes: Fab, HEK293
B24: anti-CD3 Fab clone 3-B05 (Fab, V domains shown)
VH: QVQLLQSAGGVVQPGRSLRLSCAASGFTFSTYAVHWVRQAPGKGLEWVAAISYDGAGKYYGDSVRGRFTISRDDSKNTVYLQMNSLRAEDTAVYYCAGEHYTLTDEEFDFWGQGTLVTVSS
VL: QSVLTQPPSVSAAPGQKVTISCSGSASNIGNNYVSWYQQLPGTAPKLLIYDNNQRPSGIPDRFSGSKSGTSATLGITGLQTGDEADYYCGTWDTSLRGVVFGGGTKVTVL
notes: Fab, HEK293

molecular target: T1, biotinylated His-Avi-tagged human CD3δ/ε heterodimer (human, UniProt P07766 23-126; P04234 22-105, biotinylated); assay: ELISA
T1 construct: bought, expressed from HEK293; also called CD30/8; Biotin-CD3
T1 sequence (P07766 23-126, stated change not applied, chain 1 of 2): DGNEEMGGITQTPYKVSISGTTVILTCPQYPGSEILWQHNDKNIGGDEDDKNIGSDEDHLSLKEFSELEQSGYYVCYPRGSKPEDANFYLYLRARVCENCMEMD
T1 sequence (P04234 22-105, stated change not applied, chain 2 of 2): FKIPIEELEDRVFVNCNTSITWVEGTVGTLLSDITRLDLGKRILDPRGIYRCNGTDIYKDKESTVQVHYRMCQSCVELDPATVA

EC50 [µg/mL]	Binder
38.2	B1
3.6	B2
34.9	B3
52.3	B4
16.9	B5
73.8	B6
7.9	B7
11.4	B8
12.1	B9
19.2	B10
4.3	B11
6.8	B12
5.9	B13
6.3	B14
19.5	B15
16.8	B16
7.9	B17
23.9	B18
23.9	B19
47.7	B20
5.2	B21
10.9	B22
174	B23
7.2	B24
